Results reported in patent US20170114099A1 (Affibody, published 2017).
Where two headings read alike, the source gives them in different places.

Key:
Assay in all cases: cell-based or functional assay
[1] = target: T1, human IL-6 receptor alpha (hIL-6Rα) (human, UniProt P08887 20-358, limits assumed)
T1 sequence (looked up): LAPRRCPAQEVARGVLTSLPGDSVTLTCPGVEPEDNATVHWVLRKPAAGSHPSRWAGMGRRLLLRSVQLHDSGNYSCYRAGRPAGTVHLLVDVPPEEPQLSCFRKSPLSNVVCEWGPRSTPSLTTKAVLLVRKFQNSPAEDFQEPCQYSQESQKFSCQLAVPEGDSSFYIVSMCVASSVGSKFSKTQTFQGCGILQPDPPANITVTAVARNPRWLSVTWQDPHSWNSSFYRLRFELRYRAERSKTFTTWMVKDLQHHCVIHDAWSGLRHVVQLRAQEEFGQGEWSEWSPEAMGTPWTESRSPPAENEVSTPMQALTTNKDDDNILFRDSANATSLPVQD

[2] = target: T2, cell surface IL-6 receptor on TF-1 cells (UniProt P08887 20-468, limits assumed)
T2 sequence (looked up): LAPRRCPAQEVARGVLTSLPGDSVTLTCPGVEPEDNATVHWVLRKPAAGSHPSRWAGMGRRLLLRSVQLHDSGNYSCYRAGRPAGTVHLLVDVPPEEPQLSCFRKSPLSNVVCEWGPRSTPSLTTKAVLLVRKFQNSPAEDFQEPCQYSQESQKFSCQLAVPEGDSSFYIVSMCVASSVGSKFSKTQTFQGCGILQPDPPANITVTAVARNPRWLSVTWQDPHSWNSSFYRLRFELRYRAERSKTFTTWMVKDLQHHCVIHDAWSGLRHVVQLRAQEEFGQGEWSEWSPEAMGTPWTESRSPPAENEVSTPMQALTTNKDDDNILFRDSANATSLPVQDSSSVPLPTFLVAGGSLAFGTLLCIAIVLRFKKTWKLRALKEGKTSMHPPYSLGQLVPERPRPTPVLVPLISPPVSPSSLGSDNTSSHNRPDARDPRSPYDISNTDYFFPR

[3] = target: T2, cell surface IL-6 receptor on TF-1 cells; remark: listed apart in the source

IC50, inhibition of IL-6 trans-signaling dependent MCP-1 secretion by HUVECs [1]: ~5 nM | IC50 blocking the IL-6 dependent growth of TF-1 cells [2]: 0.41 nM | IC50 blocking the IL-6 dependent growth of TF-1 cells [3]: 0.3 nM
B1: tocilizumab (antibody, V domains shown)
VH: QVQLQESGPGLVRPSQTLSLTCTVSGYSITSDHAWSWVRQPPGRGLEWIGYISYSGITTYNPSLKSRVTMLRDTSKNQFSLRLSSVTAADTAVYYCARSLARTTAMDYWGQGSLVTVSS
VL: DIQMTQSPSSLSASVGDRVTITCRASQDISSYLNWYQQKPGKAPKLLIYYTSRLHSGVPSRFSGSGSGTDFTFTISSLQPEDIATYYCQQGNTLPYTFGQGTKVEIKR
